Data published in patent US20090053180A1, “Tandem cardiac pacemaker system” (priority 2005, published 2009).
“Also recorded” adds a separate entry of the source.

Columns and labels:
[1] = test system: Xenopus oocytes; test: Two-microelectrode voltage clamp of expressed HCN current in Xenopus oocytes; format: cell-based, Xenopus laevis
[2] = test system: dogs with complete AV block; test: Tandem biological and electronic pacemakers in dogs with complete AV block (injection into left bundle branch); format: in vivo, dog
Experimental: Adult mongrel dogs weighing 22-25 kg were anesthetized with propofol 6 mg/kg IV and inhalational isoflurane (1.5%-2.5%). Using a steerable catheter, saline (n=5), AdmHCN2 (n=6) or AdmE324A (n=4) were injected into the left bundle branch (LBB) as described previously (Plotnikov et al., 2004). In 2 additional dogs AdmE324A was injected into the LV septal myocardium as an internal control. Complete AV block was induced via radiofrequency ablation and each site of injection was paced via catheter electrode to distinguish electrocardiographically the origin of the idioventricular rhythm during the follow up period.
An electronic pacemaker (Discovery II, Flextend lead; Guidant, Indianapolis, Ind.) was implanted and set at VVI 45 bpm. ECG, 24 hour Holter monitoring, pacemaker log record check, and overdrive pacing at 80 bpm were performed daily for 14 days. To evaluate beta-adrenergic responsiveness, on day 14, epinephrine (1.0, 1.5 and 2.0 μg/kg/min for up to 10 min each) was infused to an endpoint of a 50% increase in idioventricular rate or ventricular arrhythmia (single ventricular premature beats having a morphology other than that of the dominant idioventricular rhythm or ventricular tachycardia), whichever occurred first. If none of the above responses was observed within 10 min after onset of the maximal dose of 2 μg/kg/min, the infusion was terminated.
Data are presented as means±SEM. […] One-way ANOVA was used to evaluate the effect of an implanted construct on electrophysiological parameters. Subsequent analysis was performed using Bonferroni's test where equal variances were assumed and the Games-Howell test where variances were unequal. A two-way contingency table analysis was conducted to evaluate whether epinephrine had different effects across three groups. Data were analyzed using SPSS for Windows software (SPSS, Inc.). P<0.05 was considered to be significant.
Complete AV block was induced via radiofrequency ablation, and electronic pacemakers were implanted into the right ventricular apical endocardium and set a VV1 45 bpm. ECG and 24-h monitoring were performed daily for 14 days. Beta-adrenergic responsiveness was also evaluated as described above.
Escape time was evaluated daily by performing three 30-s periods of ventricular overdrive pacing at 80 bpm followed by an abrupt cessation of pacing. The average time between the final electronically paced beat and the first intrinsic beat was then determined. […] There was a different result with regard to basal heart rates throughout the 14-day period, however.

[3] = test system: canine proximal LV conducting system; conditions: sinus rhythm suppressed by vagal stimulation; cited from earlier work
[4] = test system: cell-free patches from Xenopus oocytes; conditions: cited from earlier work
[5] = test system: newborn rat ventricular myocytes; test: Whole-cell voltage clamp of expressed HCN current in newborn rat ventricular myocytes; format: cell-based; conditions: for V1/2 / s: fit of average data; for current density: measured at −135 mV
Experimental: Adult rats were anesthetized with ketamine-xylazine before cardiectomy, and neonatal rats decapitated. Newborn rat ventricular myocyte cultures were prepared as previously described (Protas and Robinson, 1999). Briefly, 1-2-day-old Wistar rats were euthanized, hearts were quickly removed and ventricles were dissociated using a standard trypsinization procedure. Myocytes were harvested, preplated to reduce fibroblast proliferation, cultured initially in serum-containing medium (except when being transfected with plasmids as described below), and then incubated in serum free medium (SFM) at 37° C., 5% CO2 after 24 h. Action potential studies were conducted on 4-day-old monolayer cultures plated directly onto fibronectin-coated 9×22 mm glass coverslips. For voltage clamp experiments, 4-6 day old monolayer cultures were resuspended by brief (2-3 min) exposure to 0.25% trypsin, then replated onto fibronectin-coated coverslips and studied within 2-8 h.
Adenoviral infection of the newborn ventricular myocytes was performed on cell monolayer cultures 4 days after initial plating. Cells were exposed to a virus-containing mix (m.o.i. 20, in 250 μl of culture medium) for 2 h, rinsed twice and incubated in SFM at 37° C., 5% CO2 for 24-48 hours prior to the cells being resuspended as described above for electrophysiological study.
The whole-cell patch clamp technique was employed to record mHCN2 current from cultured myocytes. Experiments were carried out on cells superfused at 35° C. The external solution contained (mM): NaCl, 140; NaOH, 2.3; MgCl2, 1; KCl, 10; CaCl2, 1; HEPES, 5; glucose, 10; pH 7.4. MnCl2 (2 mM) and BaCl2 (4 mM) were added to block other currents. The pipette solution contained (mM): aspartic acid, 130; KOH, 146; NaCl, 10; CaCl2, 2; EGTA-KOH, 5; Mg-ATP, 2; HEPES-KOH, 10; pH 7.2.
To measure the HCN activation curve, a standard two-step protocol was employed. Hyperpolarizing steps from −25 to −135 mV for mHCN2 and from −5 or −15 to −135 mV for mE324A were applied from a holding potential of −10 mV, followed by a tail current step (to −125 or −135 mV). The duration of test steps was longer at less hyperpolarized potential for mHCN2 channels, to more closely approach steady-state activation at all voltages. The normalized plot of tail current versus test voltage was fit with a Boltzmann function and then the voltage of half maximum activation (V1/2) and slope factor(s) were defined from the fitting. Activation kinetics were determined from the same traces, while deactivation kinetics were determined from traces recorded at each test potential after achieving full activation by a prepulse to −135 mV. Time constants were then obtained by fitting the early time course of activation or deactivation current traces with a monoexponential function; the initial delay and any late slow activation or deactivation phase were ignored (Qu et al., 2001; Altomare et al., 2001). Current densities are expressed as the value of the time-dependent component of current amplitude, measured at the end of the test potential and normalized to cell membrane capacitance. Records were not corrected for liquid junction potential, which was previously determined to be 9.8 mV under these conditions (Qu et al., 2001).

[6] = 10 μM cAMP in the pipette solution

B1: mHCN2: mouse HCN2 pacemaker ion channel (GenBank AJ225122), expressed from plasmid, cRNA or adenoviral construct AdmHCN2 (protein, UniProt O88703 1-863, looked up)
Potassium/sodium …: MDARGGGGRPGDSPGTTPAPGPPPPPPPPAPPQPQPPPAPPPNPTTPSHPESADEPGPRARLCSRDSACTPGAAKGGANGECGRGEPQCSPEGPARGPKVSFSCRGAASGPSAAEEAGSEEAGPAGEPRGSQASFLQRQFGALLQPGVNKFSLRMFGSQKAVEREQERVKSAGAWIIHPYSDFRFYWDFTMLLFMVGNLIIIPVGITFFKDETTAPWIVFNVVSDTFFLMDLVLNFRTGIVIEDNTEIILDPEKIKKKYLRTWFVVDFVSSIPVDYIFLIVEKGIDSEVYKTARALRIVRFTKILSLLRLLRLSRLIRYIHQWEEIFHMTYDLASAVMRICNLISMMLLLCHWDGCLQFLVPMLQDFPSDCWVSINNMVNHSWSELYSFALFKAMSHMLCIGYGRQAPESMTDIWLTMLSMIVGATCYAMFIGHATALIQSLDSSRRQYQEKYKQVEQYMSFHKLPADFRQKIHDYYEHRYQGKMFDEDSILGELNGPLREEIVNFNCRKLVASMPLFANADPNFVTAMLTKLKFEVFQPGDYIIREGTIGKKMYFIQHGVVSVLTKGNKEMKLSDGSYFGEICLLTRGRRTASVRADTYCRLYSLSVDNFNEVLEEYPMMRRAFETVAIDRLDRIGKKNSILLHKVQHDLSSGVFNNQENAIIQEIVKYDREMVQQAELGQRVGLFPPPPPPQVTSAIATLQQAVAMSFCPQVARPLVGPLALGSPRLVRRAPPGPLPPAASPGPPAASPPAAPSSPRAPRTSPYGVPGSPATRVGPALPARRLSRASRPLSASQPSLPHGVPAPSPAASARPASSSTPRLGPAPTARTAAPSPDRRDSASPGAASGLDPLDSARSRLSSNL
In the case of B1, the “activation more negative than mE324A” value [1] is reported as 35 mV, the “effect of Cs+ on inward current” value ([1]; 5 mM Cs+) is reported as “blocked; also recorded: large inhibition” and the “share of animals with 50% or more increase that required the highest dose of epinephrine” value ([2]; 2 μg/kg/min) is reported as 33%. The “beats triggered by the electronic pacemaker, of all beats” value ([2]; 14 days, electronic pacemaker set at VVI 45 bpm) was 26±6%, the “arrhythmias during epinephrine infusion” value ([2]; day 14) was “two animals developed ventricular arrhythmias” and the “mean basal heart rate compared with saline group” value ([2]; days 1-7 and 8-14) was “significantly faster”. For the same molecule, the “animals with less than a 50% increase in rate” value ([2]; epinephrine 1.0, 1.5, 2.0 μg/kg/min, day 14) was 50%, the “control rate prior to epinephrine” value ([2]; representative animal, day 14) was 44 bpm and the rate with epinephrine ([2]; representative animal, epinephrine 1 μg/kg/min) was 60 bpm. For the same molecule, the “rate of idioventricular rhythms” value [3] was 50-60 bpm, the “shift of activation curve to more positive potentials by cAMP” value [4] was 17 mV and the “shift of V1/2 by cAMP” value [5, 6] was 9.7 mV. The “percentage of myocytes expressing current” value ([5]; 6 matched cell cultures) was 74.5%, the midpoint of activation ([5]; HCN2 virus characterized in neonatal rat myocytes) was −69.3 mV and the “activation τ” value ([5]; at −65 mV) was 639 ± 72 ms. For the same molecule, the V1/2 [5, 6] was −59.9 mV, the s [5, 6] was 11.0 mV and the V1/2 ([5]; absence of cAMP) was −69.6 mV. The s ([5]; absence of cAMP) was 10.8 mV, the slope factor s ([5]; mean of individual Boltzmann fits) was 10.7±0.5 mV and the “V1/2 (voltage of half maximum activation)” value ([5]; mean of individual Boltzmann fits, adenoviral infection) was −66.1±1.5 mV. The current density [5] was 53.5±8.7 pA/pF and the current density ([5]; listed as HCN2) was 53.5±8.3 pA/pF.
